Experimental findings from patent US20250243240A1 are described below.

The target of this assay is Vascular endothelial growth factor (VEGF) (Homo sapiens (Human)) (UniProt P15692).

Take “Peak 1 fraction of hydrophobic interaction chromatography of purified aflibercept (pool or library)”: the relative titer amounted to 6.6%.
